# Measurements taken from patent US20200199204A1.
# Experiments:
# Assay in all cases: cell-based or functional assay
# [1] = molecular target: HIV-1 Env of WITO.33 (HIV-1)
# [2] = molecular target: HIV-1 Env of Q168.a2 (HIV-1)
# [3] = molecular target: HIV-1 Env of KER2008.12 (HIV-1)
# [4] = molecular target: HIV-1 Env of 96ZM651.02 (HIV-1)
# [5] = molecular target: HIV-1 Env of Q259.d2.17 (HIV-1)
# [6] = molecular target: HIV-1 Env of ZM233.6 (HIV-1)
# [7] = molecular target: HIV-1 Env of QH0692.42 (HIV-1)
# [8] = molecular target: HIV-1 Env of ZM53.12 (HIV-1)
# [9] = molecular target: HIV-1 Env of Q461.e2 (HIV-1)
# [10] = molecular target: HIV-1 Env of REJO.67 (HIV-1)
# [11] = molecular target: HIV-1 Env of RHPA.7 (HIV-1)
# [12] = molecular target: HIV-1 Env of CAP210.E8 (HIV-1)
# [13] = molecular target: HIV-1 Env of CAP256.SU (HIV-1)
# [14] = molecular target: HIV-1 Env of Q23.17 (HIV-1)
# [15] = molecular target: HIV-1 Env of KER2018.11 (HIV-1)
# [16] = molecular target: HIV-1 Env of ZM214.15 (HIV-1)
# [17] = molecular target: HIV-1 Env of 6405.v4.c34 (HIV-1)
# [18] = molecular target: HIV-1 Env of 6535.3 (HIV-1)
# [19] = molecular target: HIV-1 Env of TRO.11 (HIV-1)
# [20] = molecular target: HIV-1 Env of ZM249.1 (HIV-1)
# [21] = molecular target: HIV-1 Env of Q769.d22 (HIV-1)
# [22] = molecular target: HIV-1 Env of CNE3 (HIV-1)
# [23] = molecular target: HIV-1 Env of CAP45.G3 (HIV-1)
# [24] = molecular target: HIV-1 Env of SC422.8 (HIV-1)
# [25] = molecular target: HIV-1 Env of THRO.18 (HIV-1)
# [26] = molecular target: HIV-1 Env of ZM197.7 (HIV-1)
# [27] = molecular target: HIV-1 Env of DU156.12 (HIV-1)
# [28] = molecular target: HIV-1 Env of TH976.17 (HIV-1)
# [29] = molecular target: HIV-1 Env of TRJO.58 (HIV-1)
# [30] = molecular target: HIV-1 Env of MB201 (HIV-1)
# [31] = molecular target: HIV-1 Env of CAP256.PI (HIV-1)
# [32] = molecular target: HIV-1 Env of 191821.E6.1 (HIV-1)
# [33] = molecular target: HIV-1 Env of Q842.d12 (HIV-1)
# [34] = molecular target: HIV-1 Env of AC10.29 (HIV-1)
# [35] = molecular target: HIV-1 Env of MB539.2B7 (HIV-1)
# [36] = molecular target: HIV-1 Env of CAP244.D3 (HIV-1)
# [37] = molecular target: HIV-1 Env of DU422.01 (HIV-1)
# [38] = molecular target: HIV-1 Env of 0260.v5.c36 (HIV-1)
# [39] = molecular target: HIV-1 Env of 3016.V5.c36 (HIV-1)
# [40] = molecular target: HIV-1 Env of PVO.04 (HIV-1)
# [41] = molecular target: HIV-1 Env of CM244.ec1 (HIV-1)
# [42] = molecular target: HIV-1 Env of ZM135.10a (HIV-1)
# [43] = molecular target: HIV-1 Env of RW020.2 (HIV-1)
# [44] = molecular target: HIV-1 Env of BG505.w6m (HIV-1)
# [45] = molecular target: HIV-1 Env of CAAN.A2 (HIV-1)
# [46] = molecular target: HIV-1 Env of ZM109.4 (HIV-1)
# [47] = molecular target: HIV-1 Env of UG037.8 (HIV-1)
# [48] = molecular target: HIV-1 Env of DU172.17 (HIV-1)
# [49] = molecular target: HIV-1 Env of C1080.c3 (HIV-1)
# [50] = molecular target: Env of SIVmac251.30 (SIV (SIVmac251))
substance,measurement,setting,value
CAP256-VRC26.23 (antibody),IC50,[1],> 50 µg/mL
same,IC50,[2],> 50 µg/mL
same,IC50,[3],> 50 µg/mL
same,IC50,[4],> 50 µg/mL
same,IC50,[5],> 50 µg/mL
same,IC50,[6],> 50 µg/mL
same,IC50,[7],> 50 µg/mL
same,IC50,[8],0.028 µg/mL
same,IC50,[9],> 50 µg/mL
same,IC50,[10],> 50 µg/mL
same,IC50,[11],> 50 µg/mL
same,IC50,[12],0.019 µg/mL
same,IC50,[13],0.019 µg/mL
same,IC50,[14],> 50 µg/mL
same,IC50,[15],10 µg/mL
same,IC50,[16],> 50 µg/mL
same,IC50,[17],> 50 µg/mL
same,IC50,[18],> 50 µg/mL
same,IC50,[19],> 50 µg/mL
same,IC50,[20],> 50 µg/mL
same,IC50,[21],> 50 µg/mL
same,"IC50 (neutralization, TZM-bl)",[22],> 50 µg/mL
same,IC50,[23],> 50 µg/mL
same,IC50,[24],> 50 µg/mL
same,IC50,[25],> 50 µg/mL
same,IC50,[26],> 50 µg/mL
same,IC50,[27],> 50 µg/mL
same,"IC50 (neutralization, TZM-bl)",[28],> 50 µg/mL
same,IC50,[29],> 50 µg/mL
same,IC50,[30],> 50 µg/mL
same,IC50,[31],> 50 µg/mL
same,IC50,[32],> 50 µg/mL
same,IC50,[33],> 50 µg/mL
same,IC50,[34],> 50 µg/mL
same,IC50,[35],> 50 µg/mL
same,IC50,[36],> 50 µg/mL
same,IC50,[37],> 50 µg/mL
same,IC50,[38],> 50 µg/mL
same,IC50,[39],> 50 µg/mL
same,IC50,[40],> 50 µg/mL
same,IC50,[41],> 50 µg/mL
same,IC50,[42],> 50 µg/mL
same,IC50,[43],> 50 µg/mL
same,IC50,[44],> 50 µg/mL
same,IC50,[45],> 50 µg/mL
same,IC50,[46],> 50 µg/mL
same,IC50,[47],> 50 µg/mL
same,IC50,[48],> 50 µg/mL
same,IC50,[49],> 50 µg/mL
CAP256-VRC26.24 (antibody),IC50,[1],> 50 µg/mL
same,IC50,[2],3.41 µg/mL
same,IC50,[3],> 50 µg/mL
same,IC50,[4],> 50 µg/mL
same,IC50,[5],31.1 µg/mL
same,IC50,[6],1.67 µg/mL
same,IC50,[7],> 50 µg/mL
same,IC50,[8],0.047 µg/mL
same,IC50,[9],> 50 µg/mL
same,IC50,[10],> 50 µg/mL
same,IC50,[11],> 50 µg/mL
same,IC50,[12],0.23 µg/mL
same,IC50,[13],0.04 µg/mL
same,IC50,[14],5.92 µg/mL
same,IC50,[15],1.1 µg/mL
same,IC50,[16],32 µg/mL
same,IC50,[17],> 50 µg/mL
same,IC50,[18],> 50 µg/mL
same,IC50,[19],> 50 µg/mL
same,IC50,[20],13.6 µg/mL
same,IC50,[21],> 50 µg/mL
same,"IC50 (neutralization, TZM-bl)",[22],> 50 µg/mL
same,IC50,[23],0.672 µg/mL
same,IC50,[24],> 50 µg/mL
same,"IC50 (neutralization, TZM-bl)",[50],> 50 µg/mL
same,IC50,[25],> 50 µg/mL
same,IC50,[26],12.6 µg/mL
same,IC50,[27],10.8 µg/mL
same,"IC50 (neutralization, TZM-bl)",[28],> 50 µg/mL
same,IC50,[29],> 50 µg/mL
same,IC50,[30],> 50 µg/mL
same,IC50,[31],> 50 µg/mL
same,IC50,[33],> 50 µg/mL
same,IC50,[34],> 50 µg/mL
same,IC50,[35],> 50 µg/mL
same,IC50,[36],> 50 µg/mL
same,IC50,[37],21.6 µg/mL
same,IC50,[38],> 50 µg/mL
same,IC50,[39],2.12 µg/mL
same,IC50,[40],> 50 µg/mL
same,IC50,[41],> 50 µg/mL
same,IC50,[42],> 50 µg/mL
same,IC50,[43],> 50 µg/mL
same,IC50,[44],5.63 µg/mL
same,IC50,[45],> 50 µg/mL
same,IC50,[46],16.5 µg/mL
same,IC50,[47],> 50 µg/mL
same,IC50,[48],> 50 µg/mL
same,IC50,[49],17.4 µg/mL
